Measured values published in US20230190867A1, “METHODS OF TREATING NASH AND COMPOSITIONS THEREFORE” (BIOINCEPT, LLC, priority 2018, published 2023).

Legend:
[1] = molecular target: 14-3-3 protein epsilon (Homo sapiens) (UniProt P62258); assay: PIF-agarose affinity extraction of normal human liver lysate 1, LC-MS/MS
[2] = molecular target: Cytochrome b-c1 complex subunit 6, mitochondrial (Homo sapiens) (UniProt P07919); assay: as above
[3] = molecular target: Cytochrome b5 (Homo sapiens) (UniProt P00167); assay: as above
Cytochrome b5 (Homo sapiens), sequence (P00167 2-134 limits assumed): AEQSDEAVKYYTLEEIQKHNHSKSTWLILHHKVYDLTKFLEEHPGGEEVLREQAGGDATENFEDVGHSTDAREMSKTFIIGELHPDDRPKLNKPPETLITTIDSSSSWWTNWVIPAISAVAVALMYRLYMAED

[4] = molecular target: Tropomyosin alpha-4 chain (Homo sapiens) (UniProt P67936); assay: as above
Tropomyosin alpha-4 chain (Homo sapiens), sequence (P67936 2-248 limits assumed): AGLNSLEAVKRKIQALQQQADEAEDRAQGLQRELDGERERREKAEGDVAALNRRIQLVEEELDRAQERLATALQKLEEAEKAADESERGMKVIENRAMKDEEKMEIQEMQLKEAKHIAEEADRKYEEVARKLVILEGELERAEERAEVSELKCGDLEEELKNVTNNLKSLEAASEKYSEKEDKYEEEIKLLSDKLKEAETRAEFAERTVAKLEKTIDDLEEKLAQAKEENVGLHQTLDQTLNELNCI

[5] = molecular target: Calmodulin (Homo sapiens) (UniProt P0DP23); assay: as above
[6] = molecular target: Enoyl-CoA hydratase domain-containing protein 2, mitochondrial (Homo sapiens) (UniProt Q86YB7); assay: as above
Enoyl-CoA hydratase domain-containing protein 2, mitochondrial (Homo sapiens), sequence (Q86YB7 36-292 limits assumed): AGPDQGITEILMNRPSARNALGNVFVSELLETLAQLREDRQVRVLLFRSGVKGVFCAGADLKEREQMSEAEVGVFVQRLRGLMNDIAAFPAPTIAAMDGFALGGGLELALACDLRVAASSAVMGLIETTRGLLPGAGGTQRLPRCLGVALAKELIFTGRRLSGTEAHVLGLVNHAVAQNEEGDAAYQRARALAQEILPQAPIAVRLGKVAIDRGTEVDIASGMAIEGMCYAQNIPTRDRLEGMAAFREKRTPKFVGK

[7] = molecular target: Activated RNA polymerase II transcriptional coactivator p15 (Homo sapiens) (UniProt P53999); assay: as above
[8] = molecular target: Protein disulfide-isomerase A3 (Homo sapiens) (UniProt P30101); assay: as above
[9] = molecular target: Endoplasmin (Homo sapiens) (UniProt P14625); assay: as above
[10] = molecular target: Delta-aminolevulinic acid dehydratase (Homo sapiens) (UniProt P13716); assay: as above
[11] = molecular target: 78 kDa glucose-regulated protein (Homo sapiens) (UniProt P11021); assay: as above
[12] = molecular target: Protein disulfide-isomerase (Homo sapiens) (UniProt P07237); assay: as above
Protein disulfide-isomerase (Homo sapiens), sequence (P07237 18-508 limits assumed): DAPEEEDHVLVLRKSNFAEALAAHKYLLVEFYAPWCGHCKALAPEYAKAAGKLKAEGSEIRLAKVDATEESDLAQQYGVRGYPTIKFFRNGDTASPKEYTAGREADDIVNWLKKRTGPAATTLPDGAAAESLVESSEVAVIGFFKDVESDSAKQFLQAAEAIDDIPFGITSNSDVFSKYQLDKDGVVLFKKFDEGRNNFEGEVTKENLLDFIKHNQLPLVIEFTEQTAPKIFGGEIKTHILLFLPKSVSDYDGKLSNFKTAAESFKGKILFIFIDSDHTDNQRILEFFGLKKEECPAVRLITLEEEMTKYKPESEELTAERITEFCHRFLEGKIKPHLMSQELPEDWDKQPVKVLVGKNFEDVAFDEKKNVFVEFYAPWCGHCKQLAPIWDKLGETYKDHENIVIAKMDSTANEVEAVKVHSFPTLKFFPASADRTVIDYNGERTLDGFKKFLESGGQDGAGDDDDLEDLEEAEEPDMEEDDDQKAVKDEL

[13] = molecular target: Hepatoma-derived growth factor (Homo sapiens) (UniProt P51858); assay: as above
Hepatoma-derived growth factor (Homo sapiens), sequence (P51858 whole entry): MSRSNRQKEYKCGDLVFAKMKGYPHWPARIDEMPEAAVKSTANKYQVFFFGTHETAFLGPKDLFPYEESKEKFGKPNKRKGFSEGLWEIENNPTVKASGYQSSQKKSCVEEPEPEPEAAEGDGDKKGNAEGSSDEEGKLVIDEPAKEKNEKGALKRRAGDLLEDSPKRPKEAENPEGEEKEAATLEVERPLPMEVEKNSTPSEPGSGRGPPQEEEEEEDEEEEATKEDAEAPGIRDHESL

[14] = molecular target: Transitional endoplasmic reticulum ATPase (Homo sapiens) (UniProt P55072); assay: as above
Transitional endoplasmic reticulum ATPase (Homo sapiens), sequence (P55072 2-806 limits assumed): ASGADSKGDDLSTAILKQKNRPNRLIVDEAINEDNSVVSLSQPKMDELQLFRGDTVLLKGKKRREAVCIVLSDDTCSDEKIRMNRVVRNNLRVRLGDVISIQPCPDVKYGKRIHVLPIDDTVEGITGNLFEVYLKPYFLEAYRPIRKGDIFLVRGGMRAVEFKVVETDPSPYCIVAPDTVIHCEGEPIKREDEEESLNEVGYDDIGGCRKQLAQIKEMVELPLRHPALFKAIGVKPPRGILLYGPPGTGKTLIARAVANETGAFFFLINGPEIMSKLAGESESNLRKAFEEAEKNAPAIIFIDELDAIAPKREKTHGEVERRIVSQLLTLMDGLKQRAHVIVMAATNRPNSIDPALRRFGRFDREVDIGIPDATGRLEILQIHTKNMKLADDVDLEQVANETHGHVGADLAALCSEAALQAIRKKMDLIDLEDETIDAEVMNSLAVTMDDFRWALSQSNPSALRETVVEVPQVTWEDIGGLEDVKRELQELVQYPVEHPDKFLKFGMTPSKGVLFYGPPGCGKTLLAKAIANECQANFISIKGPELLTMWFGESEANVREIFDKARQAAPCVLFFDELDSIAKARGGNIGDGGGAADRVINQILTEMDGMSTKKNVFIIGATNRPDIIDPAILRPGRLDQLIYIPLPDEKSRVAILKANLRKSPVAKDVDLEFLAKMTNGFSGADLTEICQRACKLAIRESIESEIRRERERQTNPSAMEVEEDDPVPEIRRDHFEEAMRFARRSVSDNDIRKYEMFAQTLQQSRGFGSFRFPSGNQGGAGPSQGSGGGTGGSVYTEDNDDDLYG

[15] = molecular target: Peroxiredoxin-1 (Homo sapiens) (UniProt Q06830); assay: as above
Peroxiredoxin-1 (Homo sapiens), sequence (Q06830 2-199 limits assumed): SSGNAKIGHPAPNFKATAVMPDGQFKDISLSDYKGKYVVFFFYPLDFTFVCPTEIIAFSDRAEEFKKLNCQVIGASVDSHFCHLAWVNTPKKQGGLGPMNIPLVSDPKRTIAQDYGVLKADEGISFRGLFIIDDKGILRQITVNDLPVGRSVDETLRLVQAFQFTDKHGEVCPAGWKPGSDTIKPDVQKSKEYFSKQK

[16] = molecular target: Vimentin (Homo sapiens) (UniProt P08670); assay: as above
Vimentin (Homo sapiens), sequence (P08670 2-466 limits assumed): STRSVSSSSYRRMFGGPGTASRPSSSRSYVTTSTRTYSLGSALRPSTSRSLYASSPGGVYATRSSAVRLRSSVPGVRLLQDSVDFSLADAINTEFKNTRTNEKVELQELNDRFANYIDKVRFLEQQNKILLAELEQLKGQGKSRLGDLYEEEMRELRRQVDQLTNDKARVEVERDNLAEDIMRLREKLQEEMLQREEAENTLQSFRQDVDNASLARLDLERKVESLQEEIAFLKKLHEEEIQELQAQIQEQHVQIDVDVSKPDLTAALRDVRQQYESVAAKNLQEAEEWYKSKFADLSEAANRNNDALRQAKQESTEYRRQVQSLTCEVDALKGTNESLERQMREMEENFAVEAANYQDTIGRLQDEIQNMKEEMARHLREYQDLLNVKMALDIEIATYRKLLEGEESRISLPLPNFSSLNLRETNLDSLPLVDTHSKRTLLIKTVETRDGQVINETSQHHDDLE

[17] = molecular target: Calreticulin (Homo sapiens) (UniProt P27797); assay: as above
[18] = molecular target: Alcohol dehydrogenase 4 (Homo sapiens) (UniProt P08319); assay: as above
Alcohol dehydrogenase 4 (Homo sapiens), sequence (P08319 whole entry): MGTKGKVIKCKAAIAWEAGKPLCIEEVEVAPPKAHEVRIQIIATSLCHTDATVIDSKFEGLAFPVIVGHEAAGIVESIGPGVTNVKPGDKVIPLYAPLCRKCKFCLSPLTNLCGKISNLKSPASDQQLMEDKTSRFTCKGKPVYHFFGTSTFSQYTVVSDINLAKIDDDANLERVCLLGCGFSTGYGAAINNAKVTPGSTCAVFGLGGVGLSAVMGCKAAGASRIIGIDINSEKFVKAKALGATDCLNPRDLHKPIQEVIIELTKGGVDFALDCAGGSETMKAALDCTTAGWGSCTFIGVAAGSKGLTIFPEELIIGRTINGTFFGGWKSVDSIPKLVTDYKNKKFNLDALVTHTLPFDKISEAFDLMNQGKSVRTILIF

[19] = molecular target: Alcohol dehydrogenase 1B (Homo sapiens) (UniProt P00325); assay: as above
[20] = molecular target: Membrane-associated progesterone receptor component 1 (Homo sapiens) (UniProt O00264); assay: as above
[21] = molecular target: Cytosolic 10-formyltetrahydrofolate dehydrogenase (Homo sapiens) (UniProt O75891); assay: as above
[22] = molecular target: Alpha-actinin-4 (Homo sapiens) (UniProt O43707); assay: as above
Alpha-actinin-4 (Homo sapiens), sequence (O43707 whole entry): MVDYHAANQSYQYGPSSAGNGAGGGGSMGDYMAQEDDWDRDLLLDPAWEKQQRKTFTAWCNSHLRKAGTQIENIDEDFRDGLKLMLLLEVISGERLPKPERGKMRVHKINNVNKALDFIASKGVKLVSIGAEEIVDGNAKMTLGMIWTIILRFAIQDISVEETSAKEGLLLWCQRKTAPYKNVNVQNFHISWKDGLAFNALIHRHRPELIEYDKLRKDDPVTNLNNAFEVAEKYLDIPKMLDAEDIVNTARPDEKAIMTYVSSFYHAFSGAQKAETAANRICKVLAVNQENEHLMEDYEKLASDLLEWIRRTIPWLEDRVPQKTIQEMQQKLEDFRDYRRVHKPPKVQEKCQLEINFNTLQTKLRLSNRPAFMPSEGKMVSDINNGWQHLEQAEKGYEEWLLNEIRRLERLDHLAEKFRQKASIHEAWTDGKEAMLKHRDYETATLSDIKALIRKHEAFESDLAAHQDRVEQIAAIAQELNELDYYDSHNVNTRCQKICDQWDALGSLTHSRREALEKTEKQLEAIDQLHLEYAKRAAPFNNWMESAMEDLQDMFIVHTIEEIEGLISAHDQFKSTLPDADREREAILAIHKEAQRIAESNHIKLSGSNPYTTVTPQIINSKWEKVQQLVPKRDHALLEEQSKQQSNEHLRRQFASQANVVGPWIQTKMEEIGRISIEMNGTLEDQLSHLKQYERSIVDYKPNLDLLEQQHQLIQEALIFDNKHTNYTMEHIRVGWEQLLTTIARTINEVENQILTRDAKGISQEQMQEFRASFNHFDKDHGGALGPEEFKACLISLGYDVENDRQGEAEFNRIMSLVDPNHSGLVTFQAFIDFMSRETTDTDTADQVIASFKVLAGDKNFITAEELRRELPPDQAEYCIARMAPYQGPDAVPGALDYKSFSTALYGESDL

[23] = molecular target: Alcohol dehydrogenase 1A (Homo sapiens) (UniProt P07327); assay: as above
Alcohol dehydrogenase 1A (Homo sapiens), sequence (P07327 2-375 limits assumed): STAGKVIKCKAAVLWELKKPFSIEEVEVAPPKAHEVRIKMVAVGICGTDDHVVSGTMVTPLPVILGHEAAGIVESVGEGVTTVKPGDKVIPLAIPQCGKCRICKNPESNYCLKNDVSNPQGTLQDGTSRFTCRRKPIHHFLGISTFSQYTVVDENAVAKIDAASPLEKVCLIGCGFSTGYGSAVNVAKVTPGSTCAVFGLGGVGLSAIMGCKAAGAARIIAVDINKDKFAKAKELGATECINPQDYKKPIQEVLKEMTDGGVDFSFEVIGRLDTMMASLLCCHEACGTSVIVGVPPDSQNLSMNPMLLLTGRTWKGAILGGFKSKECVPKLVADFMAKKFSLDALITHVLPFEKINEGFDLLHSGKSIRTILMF

[24] = molecular target: Parathymosin (Homo sapiens) (UniProt P20962); assay: as above
[25] = molecular target: Protein disulfide-isomerase A4 (Homo sapiens) (UniProt P13667); assay: as above
[26] = molecular target: Cytochrome b-c1 complex subunit 6, mitochondrial (Homo sapiens) (UniProt P07919); assay: PIF-agarose affinity extraction of normal human liver lysate 2, LC-MS/MS
[27] = molecular target: Cytochrome b5 (Homo sapiens) (UniProt P00167); assay: as above
[28] = molecular target: Tropomyosin alpha-4 chain (Homo sapiens) (UniProt P67936); assay: as above
[29] = molecular target: Calmodulin (Homo sapiens) (UniProt P0DP23); assay: as above
[30] = molecular target: Enoyl-CoA hydratase domain-containing protein 2, mitochondrial (Homo sapiens) (UniProt Q86YB7); assay: as above
[31] = molecular target: Protein disulfide-isomerase (Homo sapiens) (UniProt P07237); assay: as above
[32] = molecular target: Hepatoma-derived growth factor (Homo sapiens) (UniProt P51858); assay: as above
[33] = molecular target: Transitional endoplasmic reticulum ATPase (Homo sapiens) (UniProt P55072); assay: as above
[34] = molecular target: Peroxiredoxin-1 (Homo sapiens) (UniProt Q06830); assay: as above
[35] = molecular target: Vimentin (Homo sapiens) (UniProt P08670); assay: as above
[36] = molecular target: Alcohol dehydrogenase 4 (Homo sapiens) (UniProt P08319); assay: as above
[37] = molecular target: Alpha-actinin-4 (Homo sapiens) (UniProt O43707); assay: as above

Cytochrome b-c1 complex subunit 6, mitochondrial (Homo sapiens), sequence (P07919 14-91 limits assumed, one chain of several): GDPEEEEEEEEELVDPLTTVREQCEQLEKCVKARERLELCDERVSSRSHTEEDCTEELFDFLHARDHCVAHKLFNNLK
14-3-3 protein epsilon (Homo sapiens), sequence (P62258 whole entry): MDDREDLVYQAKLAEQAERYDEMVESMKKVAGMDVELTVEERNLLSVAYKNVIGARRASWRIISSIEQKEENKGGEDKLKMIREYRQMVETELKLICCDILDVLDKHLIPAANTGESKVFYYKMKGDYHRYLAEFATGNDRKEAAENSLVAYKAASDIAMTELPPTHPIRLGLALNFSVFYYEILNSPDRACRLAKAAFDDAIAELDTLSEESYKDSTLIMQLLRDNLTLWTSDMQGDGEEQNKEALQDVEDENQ

What does the source list for sPIF-1(15) (peptide)?
% Coverage of the unique peptides observed [1]: 78%; % Coverage of the unique peptides observed [2]: 53%; % Coverage of the unique peptides observed [3]: 49%; % Coverage of the unique peptides observed [4]: 47%; % Coverage of the unique peptides observed [5]: 46%; % Coverage of the unique peptides observed [6]: 45%; % Coverage of the unique peptides observed [7]: 45%; % Coverage of the unique peptides observed [8]: 45%; % Coverage of the unique peptides observed [9]: 47%; % Coverage of the unique peptides observed [10]: 47%; % Coverage of the unique peptides observed [11]: 55%; % Coverage of the unique peptides observed [12]: 76%; % Coverage of the unique peptides observed [13]: 60%; % Coverage of the unique peptides observed [14]: 52%; % Coverage of the unique peptides observed [15]: 57%; % Coverage of the unique peptides observed [16]: 50%; % Coverage of the unique peptides observed [17]: 63%; % Coverage of the unique peptides observed [18]: 53%; % Coverage of the unique peptides observed [19]: 47%; % Coverage of the unique peptides observed [20]: 46%; % Coverage of the unique peptides observed [21]: 64%; % Coverage of the unique peptides observed [22]: 48%; % Coverage of the unique peptides observed [23]: 48%; % Coverage of the unique peptides observed [24]: 58%; % Coverage of the unique peptides observed [25]: 52%; % Coverage of the unique peptides observed [26]: 53%; % Coverage of the unique peptides observed [27]: 56%; % Coverage of the unique peptides observed [28]: 48%; % Coverage of the unique peptides observed [29]: 46%; % Coverage of the unique peptides observed [30]: 42%; % Coverage of the unique peptides observed [31]: 76%; % Coverage of the unique peptides observed [32]: 56%; % Coverage of the unique peptides observed [33]: 51%; % Coverage of the unique peptides observed [34]: 58%; % Coverage of the unique peptides observed [35]: 49%; % Coverage of the unique peptides observed [36]: 52%; % Coverage of the unique peptides observed [37]: 45%
